One block for each substance: values may come before it.
Tests used:
[1] = molecular target: cytosolic domain of yeast Tom70 (His-Tom70_(38–617)) (yeast (Saccharomyces cerevisiae)) (UniProt P07213); assay: pull-down; purified His-Tom70cd (50 pmol per 100 μl) pre-bound to Ni-NTA beads, incubated 40 min at 30 °C with typically 7% (v/v) reticulocyte lysate containing the [35S]-labelled protein; 10 mM MOPS/KOH, 20 mM imidazole, 150 mM KCl, 1% BSA, pH 7.2; eluted with 1 M imidazole, SDS-PAGE, phosphorimager; in some samples the bead-bound Tom70cd was pretreated with NEM and washed before the lysate was added
Sequence of cytosolic domain of yeast Tom70 (His-Tom70_(38–617)) (yeast (Saccharomyces cerevisiae)) (P07213 38-617): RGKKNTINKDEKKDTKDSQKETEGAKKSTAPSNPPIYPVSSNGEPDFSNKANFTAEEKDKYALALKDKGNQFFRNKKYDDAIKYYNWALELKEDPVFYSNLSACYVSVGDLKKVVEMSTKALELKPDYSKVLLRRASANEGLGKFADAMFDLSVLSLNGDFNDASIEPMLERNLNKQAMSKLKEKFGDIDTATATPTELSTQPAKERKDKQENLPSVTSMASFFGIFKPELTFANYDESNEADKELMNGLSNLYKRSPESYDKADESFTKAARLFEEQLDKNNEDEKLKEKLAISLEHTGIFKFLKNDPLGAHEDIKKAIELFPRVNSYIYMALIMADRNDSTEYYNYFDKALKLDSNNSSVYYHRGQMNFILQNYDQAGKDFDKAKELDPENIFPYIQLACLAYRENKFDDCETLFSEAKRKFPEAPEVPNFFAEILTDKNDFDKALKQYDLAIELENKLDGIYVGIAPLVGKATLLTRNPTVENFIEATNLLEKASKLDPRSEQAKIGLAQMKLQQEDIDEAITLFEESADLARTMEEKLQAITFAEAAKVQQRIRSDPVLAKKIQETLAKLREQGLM

[2] = molecular target: Tom70cd pretreated with N-ethylmaleimide (NEM) (yeast (Saccharomyces cerevisiae)) (UniProt P07213); assay: as above
Sequence of Tom70cd pretreated with N-ethylmaleimide (NEM) (yeast (Saccharomyces cerevisiae)) (P07213 38-617): as above

[3] = molecular target: Tom70 in the outer membrane of isolated yeast mitochondria (wild type) (S. cerevisiae (endogenous in isolated yeast mitochondria)) (UniProt P07213)
Sequence of Tom70 in the outer membrane of isolated yeast mitochondria (wild type) (S. cerevisiae (endogenous in isolated yeast mitochondria)) (P07213 whole entry): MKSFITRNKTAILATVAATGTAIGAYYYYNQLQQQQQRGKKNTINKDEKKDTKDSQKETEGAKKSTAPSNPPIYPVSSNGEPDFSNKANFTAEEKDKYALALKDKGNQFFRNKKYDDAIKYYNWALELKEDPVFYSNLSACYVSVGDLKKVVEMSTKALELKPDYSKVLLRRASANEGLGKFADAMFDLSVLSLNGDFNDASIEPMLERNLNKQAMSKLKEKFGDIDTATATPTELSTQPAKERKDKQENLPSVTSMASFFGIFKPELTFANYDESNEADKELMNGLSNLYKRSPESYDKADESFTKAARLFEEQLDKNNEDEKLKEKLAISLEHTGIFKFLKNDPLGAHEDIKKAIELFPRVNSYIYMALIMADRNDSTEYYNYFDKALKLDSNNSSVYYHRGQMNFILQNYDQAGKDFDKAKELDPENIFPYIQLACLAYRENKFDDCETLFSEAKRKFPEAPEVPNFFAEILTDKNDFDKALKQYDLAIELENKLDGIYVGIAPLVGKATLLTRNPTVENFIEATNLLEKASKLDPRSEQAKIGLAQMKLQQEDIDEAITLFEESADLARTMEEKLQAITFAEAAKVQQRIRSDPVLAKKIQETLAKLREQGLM

Sequence of AAC_(Δpos) (AAC with all positively charged residues of the matrix loops exchanged against glycine) (P02723 whole entry, stated change not applied): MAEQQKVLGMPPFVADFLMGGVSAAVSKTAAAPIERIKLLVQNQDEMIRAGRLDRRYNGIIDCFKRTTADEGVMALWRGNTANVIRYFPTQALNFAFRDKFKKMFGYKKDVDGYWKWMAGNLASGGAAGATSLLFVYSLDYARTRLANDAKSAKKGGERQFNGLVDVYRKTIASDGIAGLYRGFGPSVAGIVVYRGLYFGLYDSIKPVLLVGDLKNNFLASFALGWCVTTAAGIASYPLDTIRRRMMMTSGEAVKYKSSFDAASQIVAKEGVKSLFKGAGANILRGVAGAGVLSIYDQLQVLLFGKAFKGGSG
Sequence of ADP/ATP carrier (AAC) of Neurospora crassa, wild type (P02723 whole entry): as the sequence (P02723 whole entry, stated change not applied) above
Sequence of S. cerevisiae AAC2 (P18239 whole entry): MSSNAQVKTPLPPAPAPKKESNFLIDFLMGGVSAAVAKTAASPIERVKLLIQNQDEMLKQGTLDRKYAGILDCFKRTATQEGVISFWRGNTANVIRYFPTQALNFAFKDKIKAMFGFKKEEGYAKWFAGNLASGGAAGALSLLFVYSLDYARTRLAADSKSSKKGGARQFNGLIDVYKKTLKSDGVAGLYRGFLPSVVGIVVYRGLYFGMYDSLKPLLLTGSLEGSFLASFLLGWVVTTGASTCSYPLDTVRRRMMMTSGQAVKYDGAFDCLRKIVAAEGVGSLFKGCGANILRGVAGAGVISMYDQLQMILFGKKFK

- percent of the total radiolabelled protein bound [1]: 15 to 20%
Substance: AAC_(Δpos) (AAC with all positively charged residues of the matrix loops exchanged against glycine) (from UniProt P02723 1-313) (natural protein)

- reduction of the binding efficiency against untreated Tom70cd [2]: 50%
Substance: ADP/ATP carrier (AAC) of Neurospora crassa, wild type (from UniProt P02723 1-313) (natural protein)

- decrease in binding of [35S]-AAC2 to isolated mitochondria containing wild type Tom70, pretreated with 2 mM NEM against untreated (Fig. 3f) [3]: 50%
Substance: S. cerevisiae AAC2 (from UniProt P18239 1-318) (natural protein)

Source: publication PMC7596997
